Substrate in data set [1]: p-NP-C2
Substrate in data set [2]: p-NP-C4
Setting [3] is: pH 7.2, part of the chain shown.

B1: unnamed (protein)
chain: MTVTDIILIHGALNRGACYDAVVPLLEARGYRVHAPDLTGHTPGDGGHLSVVDMEHYTRPVADILARAEGQSILLGHSLGGASISWLAQHHPDKVAGLIYLTAVLTAPGITPETFVLPGEPNRGTPHALDLIQPVDEGRGLQADFSRLERLREVFMGDYPGEGMPPAEQFIQTQSTVPFGTPNPMEGRALEIPRLYIEALDDVVIPIAVQRQMQKEFPGPVAVVSLPASHAPYYSMPERLAEAIADFADAPAEYRQTATKAGPDRPAGADGGRADRADLP
On to B1, for which, in data set [1] (pH 7.5, 37 °C), the Km (usually the concentration of substrate that gives half-maximal velocity) came to 124 µM; the kcat – broadly, the number of substrate molecules converted per active site and unit of time at saturation – was 183 s⁻¹; the kcat/Km (commonly the turnover number divided by the Michaelis constant) was found to be 1.48e+06 M⁻¹ s⁻¹.

B2: unnamed (protein)
chain: MIRMALKPLVAACLLASLSTAPQAAPSPYSTLVVFGDSLSDAGQFPDPAGPAGSTSRFTNRVGPTYQNGSGEIFGPTAPMLLGNQLGIAPGDLAASTSPVNAQQGIADGNNWAVGGYRTDQIYDSITAANGSLIERDNTLLRSRDGYLVDRARQGLGADPNALYYITGGGNDFLQGRILNDVQAQQAAGRLVDSVQALQQAGARYIVVWLLPDLGLTPATFGGPLQPFASQLSGTFNAELTAQLSQAGANVIPLNIPLLLKEGMANPASFGLAADQNLIGTCFSGNGCTMNPTYGINGSTPDPSKLLFNDSVHPTITGQRLIADYTYSLLSAPWELTLLPEMAHGTLRAYQDELRSQWQADWENWQNVGQWRGFVGGGGQRLDFDSQDSAASGDGNGYNLTLGGSYRIDEAWRAGVAAGFYRQKLEAGAKDSDYRMNSYMASAFVQYQENRWWADAALTGGYLDYDDLKRKFALGGGERSEKGDTNGHLWAFSARLGYDIAQQADSPWHLSPFVSADYARVEVDGYSEKGASATALDYDDQKRSSKRLGAGLQGKYAFGSDTQLFAEYAHEREYEDDTQDLTMSLNSLPGNRFTLEGYTPQDHLNRVSLGFSQKLAPELSLRGGYNWRKGEDDTQQSVSLALSLDF
As to B2, in data set [2] (pH 7.2), the Km turned out to be 700 µM, the turnover number (kcat) was 247 s⁻¹ and the kcat/Km came out at 353000 M⁻¹ s⁻¹.

B3: unnamed (protein)
chain: MRALLLSGCLALVLLTQQAAAQTLLVVGDSISAALGLDTSQGWVALLQKRLADEGYDYRVVNASISGDTSAGGLARLPALLAEEKPALVVIELGGNDGLRGMAPAQLQQNLASMAQKARAEGAKVLLLGIQLPPNYGPRYIEAFSRVYGAVAAQEKTALVPFFLEGVGGVQGMMQADGIHPALAAQPRLLENVWPTLKPLL
B3: in data set [2] (setting [3]), the Km was determined as 1000 µM, the kcat was 12 s⁻¹ and the kcat/Km was 12000 M⁻¹ s⁻¹.

B4: unnamed (protein)
chain: MSKISEAVKRARAAFSSGRTRPLQFRIQQLEALQRLIQEQEQELVGALAADLHKNEWNAYYEEVVYVLEEIEYMIQKLPEWAADEPVEKTPQTQQDELYIHSEPLGVVLVIGTWNYPFNLTIQPMVGAIAAGNSVVLKPSELSENMASLLATIIPQYLDKDLYPVINGGVPETTELLKERFDHILYTGSTGVGKIIMTAAAKHLTPVTLELGGKSPCYVDKNCDLDVACRRIAWGKFMNSGQTCVAPDYILCDPSIQNQIVEKLKKSLKEFYGEDAKKSRDYGRIISARHFQRVMGLIEGQKVAYGGTGDAATRYIAPTILTDVDPQSPVMQEEIFGPVLPIVCVRSLEEAIQFINQREKPLALYMFSSNDKVIKKMIAETSSGGVAANDVIVHITLHSLPFGGVGNSGMGSYHGKKSFETFSHRRSCLVRPLMNDEGLKVRYPPSPAKMTQH
As for B4, in data set [1] (pH 7.4, 25 °C), the Km is 200 µM, the catalytic constant (kcat) turned out to be 1.43 s⁻¹ and the kcat/Km amounted to 7170 M⁻¹ s⁻¹.

B5: unnamed (protein)
chain: MSEEVSKNLSETLFVKHKQAKETSALTQYMPTSQSLLDEIKEKNGFSWYRNLRRLQWVWQGVDPIEQEQVLARIASSKHSRTDEQWLDTVMGYHSGNWAYEWTRLGMEHQKRAGEMTNEAASEALFSASLCYSIAGYPHLKSDNLAIQAQVLANSAYLEAAKKSKYIIKQLEIPFEKGKITAHLHLTNTDKPHPVVIVSAGLDSLQTDMWRLFRDHLAKHDIAMLTVDMPSVGYSSKYPLTEDYSRLHQAVLNELFSIPYVDHHRVGLIGFRFGGNAMVRLSFLEQEKIKACVILGAPIHDIFASPQKLQQMPKMYLDVLASRLGKSVVDIYSLSGQMAAWSLKVQGFLSSRKTKVPILAMSLEGDPVSPYSDNQMVAFFSTYGKAKKISSKTITQGYEQSLDLAIKWLEDELLR
Take B5: in data set [1] (pH 7.5, 25 °C), the Michaelis constant (Km) worked out at 18600 µM, the kcat is 0.67 s⁻¹ and the catalytic efficiency (kcat/Km) was 36 M⁻¹ s⁻¹.

B6: unnamed (protein)
chain: MDGVLWRVRTAALMAALLALAAWALVWASPSVEAQSNPYQRGPNPTRSALTADGPFSVATYTVSRLSVSGFGGGVIYYPTGTSLTFGGIAMSPGYTADASSLAWLGRRLASHGFVVLVINTNSRFDYPDSRASQLSAALNYLRTSSPSAVRARLDANRLAVAGHSMGGGGTLRIAEQNPSLKAAVPLTPWHTDKTFNTSVPVLIVGAEADTVAPVSQHAIPFYQNLPSTTPKVYVELDNASHFAPNSNNAAISVYTISWMKLWVDNDTRYRQFLANVNDPALSDFRTNNRHAQ
For B6, the Km in data set [2] (pH 8, 30 °C) amounted to 250 µM; in data set [2] (pH 8, 50 °C), 180 µM; in data set [2] (pH 8, 70 °C), 190 µM. The kcat in data set [2] (pH 8, 30 °C) came out at 342 s⁻¹; in data set [2] (pH 8, 50 °C), 196 s⁻¹; in data set [2] (pH 8, 70 °C) it was 49 s⁻¹. The kcat/Km in data set [2] (pH 8, 30 °C) is 1.37e+06 M⁻¹ s⁻¹; in data set [2] (pH 8, 50 °C), 1.09e+06 M⁻¹ s⁻¹; in data set [2] (pH 8, 70 °C) it was 258000 M⁻¹ s⁻¹.

B7: unnamed (protein)
chain: MRKAPLLRFTLASLALACSQALAGPSPYSTLIVFGDSLADAGQFPDLVGGTPGARFTNRDADGNFAPVSPMILGGRLGVAPGDLNPSTSVGIQPDGNNWAVGGYTTQQILDSITTTSETVIPPGNPNAGLVLRERPGYLANGLRADPNALYYLTGGGNDFLQGLVNSPADAVAAGARLAASAQALQQGGARYIMVWLLPDLGQTPNFSGTPQQNPLSLLSAAFNQSLISQLGQIDAQIIPLNIPLLLSEALASPSQFGLASDQNLVGTCYSGDSCVENPVYGINGTTPDPTKLLFNDSVHPTIAGQQLIADYAYSILAAPWELTLLPEMAHASLRAHQDELRNQWQTPWQAVGQWQAFVASGAQDLDFDGQHSAASGDGRGYNLTVGGSYRLNDAWRLGLAGGANRQKLEAGEQDSDYKLNSYMASAFAQYRQDRWWADAALTAGHLDYSDLKRTFALGVNDRSEKGDTDGEAWAMSGRLGYNLAADTSNWQLAPFISADYARVKVDGYDEKSGRSTALGFDDQERTSRRLGVGLLGSVQVLPSTRLFAEVAQEHEFEDDEQDVTMHLTSLPANDFTLTGYTPHSDLTRASLGVSHELVAGVHLRGNYNWRKSDELTQQGISVGVSVDF
Regarding B7, in data set [2] (pH 7.2), the Km came to 300 µM.

B8: unnamed (protein)
chain: MRLHRLRARLSAVACGLLLLLVRGQGQDSASPIRTTHTGQVLGSLVHVKGANAGVQTFLGIPFAKPPLGPLRFAPPEPPESWSGVRDGTTHPAMCLQDLTAVESEFLSQFNMTFPSDSMSEDCLYLSIYTPAHSHEGSNLPVMVWIHGGALVFGMASLYDGSMLAALENVVVVIIQYRLGVLGFFSTGDKHATGNWGYLDQVAALRWVQQNIAHFGGNPDRVTIFGESAGGTSVSSLVVSPISQGLFHGAIMESGVALLPGLIASSADVISTVVANLSACDQVDSEALVGCLRGKSKEEILAINKPFKMIPGVVDGVFLPRHPQELLASADFQPVPSIVGVNNNEFGWLIPKVMRIYDTQKEMDREASQAALQKMLTLLMLPPTFGDLLREEYIGDNGDPQTLQAQFQEMMADSMFVIPALQVAHFQCSRAPVYFYEFQHQPSWLKNIRPPHMKADHGDELPFVFRSFFGGNYIKFTEEEEQLSRKMMKYWANFARNGNPNGEGLPHWPLFDQEEQYLQLNLQPAVGRALKAHRLQFWKKALPQKIQELEEPEERHTEL
With B8, in data set [2] (pH 8, 37 °C), the Km came to 31 µM, the kcat was 70 s⁻¹ and the kcat/Km worked out at 2.26e+06 M⁻¹ s⁻¹.

B9: unnamed (protein)
chain: MWLRAFILATLSASAAWGHPSSPPVVDTVHGKVLGKFVSLEGFAQPVAIFLGIPFAKPPLGPLRFTPPQPAEPWSFVKNATSYPPMCTQDPKAGQLLSELFTNRKENIPLKLSEDCLYLNIYTPADLTKKNRLPVMVWIHGGGLMVGAASTYDGLALAAHENVVVVTIQYRLGIWGFFSTGDEHSRGNWGHLDQVAALRWVQDNIASFGGNPGSVTIFGESAGGESVSVLVLSPLAKNLFHRAISESGVALTSVLVKKGDVKPLAEQIAITAGCKTTTSAVMVHCLRQKTEEELLETTLKMKFLSLDLQGDPRESQPLLGTVIDGMLLLKTPEELQAERNFHTVPYMVGINKQEFGWLIPMQLMSYPLSEGQLDQKTAMSLLWKSYPLVCIAKELIPEATEKYLGGTDDTVKKKDLFLDLIADVMFGVPSVIVARNHRDAGAPTYMYEFQYRPSFSSDMKPKTVIGDHGDELFSVFGAPFLKEGASEEEIRLSKMVMKFWANFARNGNPNGEGLPHWPEYNQKEGYLQIGANTQAAQKLKDKEVAFWTNLFAKKAVEKPPQTEHIEL
Consider B9, for which, in data set [2] (pH 8, 37 °C), the Km was determined as 27 µM, the kcat was determined as 17 s⁻¹ and the kcat/Km is 630000 M⁻¹ s⁻¹.

B10: unnamed (protein)
chain: MWLLPLVLTSLASSATWAGQPASPPVVDTAQGRVLGKYVSLEGLAQPVAVFLGVPFAKPPLGSLRFAPPQPAEPWSFVKNTTSYPPMCCQDPVVEQMTSDLFTNGKERLTLEFSEDCLYLNIYTPADLTKRGRLPVMVWIHGGGLVLGGAPMYDGVVLAAHENVVVVAIQYRLGIWGFFSTGDEHSRGNWGHLDQVAALHWVQENIANFGGDPGSVTIFGESAGGESVSVLVLSPLAKNLFHRAISESGVALTVALVRKDMKAAAKQIAVLAGCKTTTSAVFVHCLRQKSEDELLDLTLKMKFLTLDFHGDQRESHPFLPTVVDGVLLPKMPEEILAEKDFNTVPYIVGINKQEFGWLLPTMMGFPLSEGKLDQKTATSLLWKSYPIANIPEELTPVATDKYLGGTDDPVKKKDLFLDLMGDVVFGVPSVTVARQHRDAGAPTYMYEFQYRPSFSSDKKPKTVIGDHGDEIFSVFGFPLLKGDAPEEEVSLSKTVMKFWANFARSGNPNGEGLPHWPMYDQEEGYLQIGVNTQAAKRLKGEEVAFWNDLLSKEAAKKPPKIKHAEL
Consider B10, for which, in data set [1] (pH 7.4, 37 °C), the Km amounted to 520 µM, the kcat stood at 20.2 s⁻¹ and the catalytic efficiency (kcat/Km) was 38800 M⁻¹ s⁻¹. Besides, in data set [2] (pH 7.4, 37 °C), the Km came out at 140 µM, the kcat amounted to 27.4 s⁻¹ and the kcat/Km was 196000 M⁻¹ s⁻¹.
